Results published in article doi:10.1101/2021.04.13.439572.

How the values were obtained:
Assay in all cases: fluorescence polarisation
[1] = molecular target: KPNB1 HEAT, tag cleaved, for affinity measurements
[2] = molecular target: 14-3-3 protein sigma (14-3-3 SFN), tag cleaved, for affinity measurements
[3] = molecular target: KPNA4 ARM, MBP-tagged, for affinity measurements
[4] = molecular target: MDM2 SWIB, cleaved from the His-GST tag, for affinity measurements
[5] = molecular target: TLN1 PTB, tag cleaved, for affinity measurements

KPNA2_(514-529) C-terminal synthetic peptide (from UniProt P52292 514-529)
Ki [1]: 1000 µM

MAP1A_(1836-1851) synthetic peptide
Ki [2]: 355 µM

NKX2-5_(192-207) K194R synthetic peptide (from UniProt P52952 192-207)
fold loss of affinity against wild-type NKX2-5 (192-207) [3]: 10 fold

NUMB_(615-630) synthetic peptide (from UniProt P49757 615-630)
Ki [4]: 3.3 µM

RNF115_(69-84) synthetic peptide (from UniProt Q9Y4L5 69-84)
Ki [4]: 0.17 µM

integrin beta-3 ITB3_(763-778) synthetic peptide
Ki [5]: 500 µM
